One protein from publication PMC9884297, “Iron-sulfur clusters are involved in post-translational arginylation” (Nature Communications, 2023) can be followed below.

This data set deals with the molecule itself. The experiment in a line: SEC; 120 mL gel filtration column, 25 mmol/L Tris pH 7.5, 100 mmol/L NaCl, 1 mmol/L TCEP, 0.35 mol/L glycerol; apparent oligomeric state.

B1: Arg tRNA synthetase from E. coli (strain K12) (enzyme, UniProt P11875 1-577, looked up)
chain: MNIQALLSEKVRQAMIAAGAPADCEPQVRQSAKVQFGDYQANGMMAVAKKLGMAPRQLAEQVLTHLDLNGIASKVEIAGPGFINIFLDPAFLAEHVQQALASDRLGVATPEKQTIVVDYSAPNVAKEMHVGHLRSTIIGDAAVRTLEFLGHKVIRANHVGDWGTQFGMLIAWLEKQQQENAGEMELADLEGFYRDAKKHYDEDEEFAERARNYVVKLQSGDEYFREMWRKLVDITMTQNQITYDRLNVTLTRDDVMGESLYNPMLPGIVADLKAKGLAVESEGATVVFLDEFKNKEGEPMGVIIQKKDGGYLYTTTDIACAKYRYETLHADRVLYYIDSRQHQHLMQAWAIVRKAGYVPESVPLEHHMFGMMLGKDGKPFKTRAGGTVKLADLLDEALERARRLVAEKNPDMPADELEKLANAVGIGAVKYADLSKNRTTDYIFDWDNMLAFEGNTAPYMQYAYTRVLSVFRKAEIDEEQLAAAPVIIREDREAQLAARLLQFEETLTVVAREGTPHVMCAYLYDLAGLFSGFYEHCPILSAENEEVRNSRLKLAQLTAKTLKLGLDTLGIETVERM
notes: Arg tRNA synthetase, E. coli strain K12, UniProt P11875; A TEV-protease cleavage site (ENLYFQS) lies between the protein and the C-terminal (His)6 tag (pET-21a(+), NdeI/XhoI); also called EcArgRS; ArgRS
As for B1, the “stoichiometry N” value turned out to be 6.

As usually defined, the stoichiometry N is the number of molecules, sites or subunits per partner or assembly.
